Results as given in publication PMC3143262 (Journal of molecular biology, 2011).
Residue numbers refer to the chain shown, from its start. Numbers in names are those of the source.

B1: CD147 Ig0 wild-type (domain or fragment, human, UniProt P35613 22-138, looked up)
chain: AAGFVQAPLSQQRWVGGSVELHCEAVGSPVPEIQWWFEGQGPNDTCSQLWDGARLDRVHIHATYHQHAASTISIDTLVEEDTGTYECRASNDPDRNHLTRAPRVKWVRAQAVVLVLE
B2: CD147 Ig0 C67M (domain or fragment, human, UniProt P35613 22-138, looked up)
chain: B1 chain with C46M
modifications: Selenomethionine labeled for the crystal structure
B3: CD147 Ig0 K126A (domain or fragment, human, UniProt P35613 22-138, looked up)
chain: B1 chain with K105A

Target: the molecule itself
Experiment: SEC

Protein | stoichiometry N
B1 | 2
B2 | 2
B3 | 2
